Data published in patent US20020076736A1, “Methods of affecting laminin 5 processing” (priority 2000, published 2002).

Assays:
[1] = molecular target: unprocessed human laminin 5 (α3 chain of 200 kDa, β3 chain of 140 kDa, γ2 chain of 155 kDa) (UniProt Q16787)
[2] = molecular target: unprocessed human laminin 5 (α3 chain of 200 kDa, β3 chain of 140 kDa, γ2 chain of 155 kDa), Q16787
Chain of unprocessed human laminin 5 (α3 chain of 200 kDa, β3 chain of 140 kDa, γ2 chain of 155 kDa), Q16787 (Q16787 whole entry, looked up): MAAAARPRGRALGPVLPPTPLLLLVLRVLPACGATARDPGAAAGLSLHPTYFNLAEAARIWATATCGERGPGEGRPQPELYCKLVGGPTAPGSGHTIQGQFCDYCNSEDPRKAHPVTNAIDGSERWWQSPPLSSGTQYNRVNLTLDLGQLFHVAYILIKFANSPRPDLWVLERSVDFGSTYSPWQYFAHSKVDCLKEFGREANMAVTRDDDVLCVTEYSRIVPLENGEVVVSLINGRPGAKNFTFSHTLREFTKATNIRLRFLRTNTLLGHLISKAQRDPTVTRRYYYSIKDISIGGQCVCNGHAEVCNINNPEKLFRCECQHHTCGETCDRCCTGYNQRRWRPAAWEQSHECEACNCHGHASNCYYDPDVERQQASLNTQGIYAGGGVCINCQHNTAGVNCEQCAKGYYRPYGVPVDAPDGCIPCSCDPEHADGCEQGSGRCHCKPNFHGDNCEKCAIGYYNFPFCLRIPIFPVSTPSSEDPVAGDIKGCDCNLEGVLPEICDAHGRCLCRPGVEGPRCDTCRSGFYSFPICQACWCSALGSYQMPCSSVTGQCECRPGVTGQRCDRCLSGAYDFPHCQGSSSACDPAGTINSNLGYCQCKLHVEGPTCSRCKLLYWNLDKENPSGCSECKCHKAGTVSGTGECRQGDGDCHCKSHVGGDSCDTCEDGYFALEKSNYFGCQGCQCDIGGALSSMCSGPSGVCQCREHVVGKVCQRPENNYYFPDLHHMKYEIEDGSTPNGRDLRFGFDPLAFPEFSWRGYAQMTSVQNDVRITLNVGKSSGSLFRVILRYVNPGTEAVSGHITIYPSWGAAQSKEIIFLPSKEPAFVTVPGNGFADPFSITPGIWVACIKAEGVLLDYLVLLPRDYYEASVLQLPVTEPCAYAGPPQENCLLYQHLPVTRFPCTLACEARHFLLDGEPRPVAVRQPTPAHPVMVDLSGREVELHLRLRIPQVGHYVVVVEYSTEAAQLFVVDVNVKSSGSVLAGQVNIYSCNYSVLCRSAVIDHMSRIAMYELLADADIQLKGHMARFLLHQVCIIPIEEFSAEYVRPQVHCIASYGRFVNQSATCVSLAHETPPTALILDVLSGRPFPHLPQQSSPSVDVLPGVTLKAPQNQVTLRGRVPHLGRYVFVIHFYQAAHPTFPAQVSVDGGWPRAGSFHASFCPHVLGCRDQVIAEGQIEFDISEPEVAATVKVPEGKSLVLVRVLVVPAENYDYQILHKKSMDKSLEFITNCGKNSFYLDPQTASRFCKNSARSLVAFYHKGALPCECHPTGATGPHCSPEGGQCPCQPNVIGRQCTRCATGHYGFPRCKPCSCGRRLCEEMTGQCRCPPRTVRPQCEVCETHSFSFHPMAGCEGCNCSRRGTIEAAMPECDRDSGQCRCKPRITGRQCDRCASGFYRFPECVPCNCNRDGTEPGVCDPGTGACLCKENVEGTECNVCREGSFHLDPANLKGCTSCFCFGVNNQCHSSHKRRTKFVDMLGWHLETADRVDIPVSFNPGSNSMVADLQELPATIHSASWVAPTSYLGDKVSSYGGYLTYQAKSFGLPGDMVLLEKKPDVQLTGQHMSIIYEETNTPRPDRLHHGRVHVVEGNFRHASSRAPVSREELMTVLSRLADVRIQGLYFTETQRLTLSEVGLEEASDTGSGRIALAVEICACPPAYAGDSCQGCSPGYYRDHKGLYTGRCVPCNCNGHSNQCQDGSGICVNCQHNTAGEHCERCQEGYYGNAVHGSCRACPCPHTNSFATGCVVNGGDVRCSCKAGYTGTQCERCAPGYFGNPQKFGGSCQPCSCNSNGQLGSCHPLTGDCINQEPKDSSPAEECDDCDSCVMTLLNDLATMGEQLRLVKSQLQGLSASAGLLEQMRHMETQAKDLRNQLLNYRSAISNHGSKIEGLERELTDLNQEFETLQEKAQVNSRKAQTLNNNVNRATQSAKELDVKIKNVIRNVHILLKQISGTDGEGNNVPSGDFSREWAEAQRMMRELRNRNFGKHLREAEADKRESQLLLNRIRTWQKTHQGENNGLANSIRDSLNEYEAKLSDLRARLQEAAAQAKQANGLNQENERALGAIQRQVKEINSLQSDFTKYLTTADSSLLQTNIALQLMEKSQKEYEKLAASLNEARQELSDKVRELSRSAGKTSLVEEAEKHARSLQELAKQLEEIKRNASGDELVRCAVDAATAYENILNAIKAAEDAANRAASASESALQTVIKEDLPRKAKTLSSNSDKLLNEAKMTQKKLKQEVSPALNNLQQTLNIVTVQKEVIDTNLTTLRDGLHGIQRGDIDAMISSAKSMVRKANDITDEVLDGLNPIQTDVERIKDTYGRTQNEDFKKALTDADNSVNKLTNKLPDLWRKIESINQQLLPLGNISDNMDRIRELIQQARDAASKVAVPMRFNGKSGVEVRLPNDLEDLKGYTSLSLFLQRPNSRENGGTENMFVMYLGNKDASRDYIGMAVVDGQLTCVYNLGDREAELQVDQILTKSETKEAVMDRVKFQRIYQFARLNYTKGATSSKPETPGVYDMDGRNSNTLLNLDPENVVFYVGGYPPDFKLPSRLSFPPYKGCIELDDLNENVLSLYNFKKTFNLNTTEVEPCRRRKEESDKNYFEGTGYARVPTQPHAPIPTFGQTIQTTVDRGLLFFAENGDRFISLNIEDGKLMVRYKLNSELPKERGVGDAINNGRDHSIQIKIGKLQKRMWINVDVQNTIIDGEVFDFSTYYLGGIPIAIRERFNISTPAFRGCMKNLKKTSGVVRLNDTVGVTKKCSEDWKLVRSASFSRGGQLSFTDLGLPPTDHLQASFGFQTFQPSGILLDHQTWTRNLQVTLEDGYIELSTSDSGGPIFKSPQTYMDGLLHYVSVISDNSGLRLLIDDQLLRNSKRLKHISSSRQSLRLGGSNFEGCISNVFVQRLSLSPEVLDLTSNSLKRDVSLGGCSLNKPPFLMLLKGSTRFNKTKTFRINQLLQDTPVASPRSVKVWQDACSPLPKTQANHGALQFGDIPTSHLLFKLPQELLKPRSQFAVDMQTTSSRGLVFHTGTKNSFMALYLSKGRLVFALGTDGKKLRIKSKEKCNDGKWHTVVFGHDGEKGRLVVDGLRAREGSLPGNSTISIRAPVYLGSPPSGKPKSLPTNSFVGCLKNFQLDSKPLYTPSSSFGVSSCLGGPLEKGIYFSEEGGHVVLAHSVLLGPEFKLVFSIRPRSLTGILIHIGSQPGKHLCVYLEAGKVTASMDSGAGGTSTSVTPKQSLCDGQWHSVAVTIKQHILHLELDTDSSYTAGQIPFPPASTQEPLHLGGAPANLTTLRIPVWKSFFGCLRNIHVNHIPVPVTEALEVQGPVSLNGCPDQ

Chain of unprocessed human laminin 5 (α3 chain of 200 kDa, β3 chain of 140 kDa, γ2 chain of 155 kDa) (Q16787 whole entry, looked up): as above

## human mammalian tolloid (mTld)
[1]
  cleavage of the α3 chain of laminin 5 (matrix digestion, western blot): BMP-1, mTld, mTll-1, and mTLL-2 all cleaved the α3 chain of laminin 5

B1: human BMP-1 (bone morphogenetic protein-1) (protein)
chain: AATSRPERVWPDGVIPFVIGGNFTGSQRAVFRQAMRHWEKHTCVTFLERTDEDSYIVFTYRPCGCCSYVGRRGGGPQAISIGKNCDKFGIVVHELGHVVGFWHEHTRPDRDRHVSIVRENIQPGQEYNFLKMEPQEVESLGETYDFDSIMHYARNTFSRGIFLDTIVPKYEVNGVKPPIGQRTRLSKGDIAQARKLYKCPACGETLQDSTGNFSSPEYPNGYSAHMHCVWRISVTPGEKIILNFTSLDLYRSRLCWYDYVEVRDGFWRKAPLRGRFCGSKLPEPIVSTDSRLWVEFRSSSNWVGKGFFAVYEAICGGDVKKDYGHIQSPNYPDDYRPSKVCIWRIQVSEGFHVGLTFQSFEIERHDSCAYDYLEVRDGHSESSTLIGRYCGYEKPDDIKSTSSRLWLKFVSDGSINKAGFAVNFFKEVDECSRPNRGGCEQRCLNTLGSYKCSCDPGYELAPDKRRCEAACGGFLTKLNGSITSPGWPKEYPPNKNCIWQLVAPTQYRISLQFDFFETEGNDVCKYDFVEVRSGLTADSKLHGKFCGSEKPEVITSQYNNMRVEFKSDNTVSKKGFKAHFFSEKRPALQPPRGRPHQLKFRVQKRNRTPQ
[2]
  cleavage of the α3 chain of laminin 5 (matrix digestion, western blot): BMP-1, mTld, mTll-1, and mTLL-2 all cleaved the α3 chain of laminin 5
  cleavage of the γ2 chain of laminin 5 (matrix digestion, western blot): BMP-1 and mTLL-2 cleaved the γ2 chain of laminin 5
  processing of the laminin 5 α3 chain (about 1 µg laminin 5 with 30 ng/ml BMP-1, 16 hours at 37° C., western blot): laminin α3 chain was completely processed from 200 kDa to 165 kDa by BMP-1

B2: human mammalian tolloid-like-1 (mTll-1) (protein)
chain: AATSRTERIWPGGVIPYVIGGNFTGSQRAMFKQAMRHWEKHTCVTFIERSDEESYIVFTYRPCGCCSYVGRRGNGPQAISIGKNCDKFGIVVHELGHVIGFWHEHTRPDRDNHVTIIRENIQPGQEYNFLKMEPGEVNSLGERYDFDSIMHYARNTFSRGMFLDTILPSRDDNGIRPAIGQRTRLSKGDIAQARKLYRCPACGETLQESNGNLSSPGFPNGYPSYTHCIWRVSVTPGEKIVLNFTTMDLYKSSLCWYDYIEVRDGYWRKSPLLGRFCGDKLPEVLTSTDSRMWIEFRSSSNWVGKGFAAVYEAICGGEIRKNEGQIQSPNYPDDYRPMKECVWKITVSESYHVGLTFQSFEIERHDNCAYDYLEVRDGTSENSPLIGRFCGYDKPEDIRSTSNTLWMKFVSDGTVNKAGFAANFFKEEDECAKPDRGGCEQRCLNTLGSYQCACEPGYELGPDRRSCEAACGGLLTKLNGTITTPGWPKEYPPNKNCVWQVVAPTQYRISVKFEFFELEGNEVCKYDYVEIWSGLSSESKLHGKFCGAEVPEVITSQFNNMRIEFKSDNTVSKKGFKAHFFSDKDECSKDNGGCQHECVNTMGSYMCQCRNGFVLHDNKHDCKEAECEQKIHSPSGLITSPNWPDKYPSRKECTWEISATPGHRIKLAFSEFEIEQHQECAYDHLEVFDGETEKSPILGRLCGNKIPDPLVATGNKMFVRFVSDASVQRKGFQATHSTECGGRLKAESKPRDLYSHAQFGDNNYPGQVDCEWLLVSERGSRLELSFQTFEVEEEADCGYDYVELFDGLDSTAVGLGRFCGSGPPEEIYSIGDSVLIHFHTDDTINKKGFHIRYKSIRYPDTTHTKK
[2]
  cleavage of the α3 chain of laminin 5 (matrix digestion, western blot): BMP-1, mTld, mTll-1, and mTLL-2 all cleaved the α3 chain of laminin 5

B3: human mammalian tolloid-like-2 (mTll-2) (protein)
chain: ATTSRTERIWPGGVIPYVIGGNFTGSQRAIFKQAMRHWEKHTCVTFIERTDEESFIVFSYRTCGCCSYVGRRGGGPQAISIGKNCDKFGIVAHELGHVVGFWHEHTRPDRDQHVTIIRENIQPGQEYNFLKMEAGEVSSLGETYDFDSIMHYARNTFSRGVFLDTILPRQDDNGVRPTIGQRVRLSQGDIAQARKLYKCPACGETLQDTTGNFSAPGFPNGYPSYSHCVWRISVTPGEKIVLNFTSMDLFKSRLCWYDYVEVRDGYWRKAPLLGRFCGDKIPEPLVSTDSRLWVEFRSSSNILGKGFFAAYEATCGGDMNKDAGQIQSPNYPDDYRPSKECVWRITVSEGFHVGLTFQAFEIERHDSCAYDYLEVRDGPTEESALIGHFCGYEKPEDVKSSSNRLWMKFVSDGSINKAGFAANFFKEVDECSWPDHGGCEHRCVNTLGSYKCACDPGYELAADKKMCEVACGGFITKLNGTITSPGWPKEYPTNKNCVWQVVAPAQYRISLQFEVFELEGNDVCKYDFVEVRSGLSPDAKLHGRFCGSETPEVITSQSNNMRVEFKSDNTVSKRGFRAHFFSDKDECAKDNGGCQHECVNTFGSYLCRCRNGYWLHENGHDCKEAGCAHKISSVEGTLASPNWPDKYPSRRECTWNISSTAGHRVKLTFNEFEIEQHQECAYDHLEMYDGPDSLAPILGRFCGSKKPDPTVASGSSMFLRFYSDASVQRKGFQAVHSTECGGRLKAEVQTKELYSHAQFGDNNYPSEARCDWVIVAEDGYGVELTFRTFEVEEEADCGYDYMEAYDGYDSSAPRLGRFCGSGPLEEIYSAGDSLMIRFRTDDTINKKGFHARYTSTKFQDALHMKK
[2]
  cleavage activity toward the α3 chain and γ2 chain of laminin 5, compared with the other BMP-1 related proteins: mTll-2 showed more potent cleavage activity toward the α3 chain and γ2 chain of laminin 5 compared to the other BMP-1 related proteins
  cleavage of the α3 chain of laminin 5 (matrix digestion, western blot): BMP-1, mTld, mTll-1, and mTLL-2 all cleaved the α3 chain of laminin 5
  cleavage of the γ2 chain of laminin 5 (matrix digestion, western blot): BMP-1 and mTLL-2 cleaved the γ2 chain of laminin 5
